Laboratory results from IntAct's records for PubMed 26040720.

B1: Reticulophagy regulator 1 (Homo sapiens), Q9H6L5-1 (parent)
chain: MASPAPPEHAEEGCPAPAAEEQAPPSPPPPQASPAERQQQEEEAQEAGAAEGAGLQVEEAAGRAAAAVTWLLGEPVLWLGCRADELLSWKRPLRSLLGFVAANLLFWFLALTPWRVYHLISVMILGRVIMQIIKDMVLSRTRGAQLWRSLSESWEVINSKPDERPRLSHCIAESWMNFSIFLQEMSLFKQQSPGKFCLLVCSVCTFFTILGSYIPGVILSYLLLLCAFLCPLFKCNDIGQKIYSKIKSVLLKLDFGIGEYINQKKRERSEADKEKSHKDDSELDFSALCPKISLTVAAKELSVSDTDVSEVSWTDNGTFNLSEGYTPQTDTSDDLDRPSEEVFSRDLSDFPSLENGMGTNDEDELSLGLPTELKRKKEQLDSGHRPSKETQSAAGLTLPLNSDQTFHLMSNLAGDVITAAVTAAIKDQLEGVQQALSQAAPIPEEDTDTEEGDDFELLDQSELDQIESELGLTQDQEAEAQQNKKSSGFLSNLLGGH

Variants of: B1
Details: with MAP1LC3A

Variant | effect of a mutation on the interaction
D453A;D454A;F455A;E456A;L457A;L458A | disrupting interaction strength
